We go through three molecules from patent US20100203559A1 (published 2010).

Numbering of substitutions follows the chain as printed.

B1: α-SNAP-25 monoclonal antibody 2E2A6 (antibody, V domains shown)
VH: QVQLQQSDAELVKPGASVKISCRASGYTFTDHSIHWVKQQPGQGLEWIGYIFPGNGNIEYNDKFKGKATLTADKSSGTAYMQLNSLTSEDSAVYFCKRMGYWGQGTSVTVSS
VL: DVLMTQTPLTLSVTIGQPASISCKSSQSLLYTNGKTYLTWLFQRPGQSPKRLIYLVSELDSGVPDRFSGSGSGTDFTLEITRVEAEDLGVYYCLQSAHFPFTFGSGTKLEIKR
B2: α-SNAP-25 monoclonal antibody 3C1A5 (antibody, V domains shown)
VH: QVKLQESGAELVKPGASVKISCKASGYTFTDHSIHWVKQKPGQGLEWIGYLFPGNGNFEYNEKFKGKATLTADKSSSTVYMYLNSLTSEDSAVYFCKRMGYWGQGTTVTVSS
VL: B1 VL with L3V, Y31N, F42I, K50Q, E58K, E79K, T81S, A97S
B3: α-SNAP-25 monoclonal antibody 1D3B8 (antibody, V domains shown)
VH: QVKLQESGAELVKPGASVKISCKASGYIFTDHALHWVRQKPEQGLEWIGYIFPGNGNIEYNEKFKGKATLTADKSSSTAYMQLNSLTSGDSAMYFCKKMDYWGQGTTVTVSS
VL: DVLMTQTPLSLPVSLGDQASISCRSSQSIVHSNGNTYLEWYLQKPGQSPKLLIYKVSNRFSGVPDRFSGSGSGTDFTLKISRVEAEDLGVYYCFQGSHVPPTFGAGTKLELKR

T1 sequence (P60881 whole entry): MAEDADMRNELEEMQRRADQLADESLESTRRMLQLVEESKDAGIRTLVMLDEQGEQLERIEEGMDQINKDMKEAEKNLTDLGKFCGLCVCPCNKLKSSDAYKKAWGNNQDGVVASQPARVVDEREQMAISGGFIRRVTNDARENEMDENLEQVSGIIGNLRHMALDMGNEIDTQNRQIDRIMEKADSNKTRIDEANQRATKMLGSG

This assay has as its target T1, SNAP-25206 uncleaved substrate (PC12 cells) (rat (PC12 cells), UniProt P60881 1-206).
T1 construct: also called uncleaved SNAP-25206 substrate; uncleaved SNAP-25
Description: cell-based activity assay (Western blot, PC12 cells), ascites 1:100. (A western blot detects proteins with antibodies after separation by electrophoresis.)
B1: the binding result is “no binding”.
Turning to B2, the binding result was “no binding”.
Then B3, with “no binding”.
